The results in this text go back to US20180155451A1 (published 2018).

The labels stand for the following.
B1: GpH7-A5/GpH7-B3 variant P271_10E/GpL16-k0 (antibody, human IgG1, kappa)
heavy 1: not shown
heavy 2: not shown
light: DIVMTQSPLSLPVTPGEPASISCQASESLVHSNRNTYLHWYLQKPGQSPQLLIYKVSNRFSGVPDRFSGSGSGTDFTLKISRVEAEDVGVYYCSQNTHVPPTFGQGTKVEIERTVAAPSVFIFPPSDEQLKSGTASVVCLLNNFYPREAKVQWKVDNALQSGNSQESVTEQDSKDSTYSLSSTLTLSKADYEKHKVYACEVTHQGLSSPVTKSFNRGEC
notes: heterodimerized antibody, mutation in one H chain only; also called He Ab
B2: GpH7-A5/GpH7-B3 variant S267_06M/GpL16-k0 (antibody, human IgG1, kappa)
heavy 1: not shown
heavy 2: not shown
light: B1 light
notes: as for B1
B3: GpH7-A5/GpH7-B3 variant S267_09D/GpL16-k0 (antibody, human IgG1, kappa)
heavy 1: not shown
heavy 2: not shown
light: B1 light
notes: as for B1
B4: GpH7-A5/GpH7-B3 variant P331_03V/GpL16-k0 (antibody, human IgG1, kappa)
heavy 1: not shown
heavy 2: not shown
light: B1 light
notes: as for B1
B5: GpH7-A5/GpH7-B3 variant S298_06M/GpL16-k0 (antibody, human IgG1, kappa)
heavy 1: not shown
heavy 2: not shown
light: B1 light
notes: as for B1
B6: GpH7-A5/GpH7-B3 variant S324_06M/GpL16-k0 (antibody, human IgG1, kappa)
heavy 1: not shown
heavy 2: not shown
light: B1 light
notes: as for B1
B7: GpH7-A5/GpH7-B3 variant P238_20W/GpL16-k0 (antibody, human IgG1, kappa)
heavy 1: not shown
heavy 2: not shown
light: B1 light
notes: as for B1
B8: GpH7-A5/GpH7-B3 variant S298_08L/GpL16-k0 (antibody, human IgG1, kappa)
heavy 1: not shown
heavy 2: not shown
light: B1 light
notes: as for B1
B9: GpH7-A5/GpH7-B3 variant S267_19Q/GpL16-k0 (antibody, human IgG1, kappa)
heavy 1: not shown
heavy 2: not shown
light: B1 light
notes: as for B1
B10: GpH7-A5/GpH7-B3 variant P271_09D/GpL16-k0 (antibody, human IgG1, kappa)
heavy 1: not shown
heavy 2: not shown
light: B1 light
notes: as for B1
B11: GpH7-A5/GpH7-B3 variant S324_04F/GpL16-k0 (antibody, human IgG1, kappa)
heavy 1: not shown
heavy 2: not shown
light: B1 light
notes: as for B1
B12: GpH7-A5/GpH7-B3 variant I336_02A/GpL16-k0 (heterodimerized antibody, He Ab) (antibody, human IgG1, kappa)
heavy 1: not shown
heavy 2: not shown
light: B1 light
notes: Anti-glypican-3 IgG1 heterodimerized antibody; the alteration stands only in the GpH7-B3 chain; Positions in EU numbering; also called I336A
B13: GpH7-A5/GpH7-B3 variant I336_03V/GpL16-k0 (heterodimerized antibody, He Ab) (antibody, human IgG1, kappa)
heavy 1: not shown
heavy 2: not shown
light: B1 light
notes: Anti-glypican-3 IgG1 heterodimerized antibody; the alteration stands only in the GpH7-B3 chain; Positions in EU numbering; also called I336V
B14: GpH7-A5/GpH7-B3 variant I336_10E/GpL16-k0 (heterodimerized antibody, He Ab) (antibody, human IgG1, kappa)
heavy 1: not shown
heavy 2: not shown
light: B1 light
notes: Anti-glypican-3 IgG1 heterodimerized antibody; the alteration stands only in the GpH7-B3 chain; Positions in EU numbering; also called I336E

For one assay, the target named is T1, FcγRIIa R (human FcγRIIa, allotype R, Arg at position 131), extracellular domain with C-terminal His tag (human, UniProt P12318 34-217).
T1 construct: extracellular domain; expressed in FreeStyle293 cells; analyte in Biacore; also called 2aR; FcgRIIa R
T1 sequence (looked up): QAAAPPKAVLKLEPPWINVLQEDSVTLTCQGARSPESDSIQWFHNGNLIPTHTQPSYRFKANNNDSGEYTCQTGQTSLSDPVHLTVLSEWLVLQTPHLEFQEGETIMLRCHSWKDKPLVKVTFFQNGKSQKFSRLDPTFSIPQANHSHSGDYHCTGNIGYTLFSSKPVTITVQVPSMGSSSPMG
The experiment in a line: SPR (Biacore), relative binding vs GpH7-A5/GpH7-B3/GpL16-k0. For orientation: SPR reads the build-up and loss of mass on a sensor chip optically.
In the case of B1, the He/Con_2aR is 103 relative, control = 100. For the molecule B2, the He/Con_2aR was 122 relative, control = 100. Same read-out and setting: the same measure for B3: 173 relative, control = 100; for B4: 114 relative, control = 100. With B5, the He/Con_2aR is 108 relative, control = 100. In the case of B6, the He/Con_2aR is 123 relative, control = 100. Still for that read-out and setting: as for B7, the figure is 117 relative, control = 100.

Consider B8, for which the He/Con_2aR was 105 relative, control = 100. On the same count and under the same terms, as for B9, the figure is 135 relative, control = 100; as for B10, 110 relative, control = 100; as for B11, 104 relative, control = 100.

The target in a further assay is T2, FcγRIIIa extracellular domain with C-terminal His tag (human, UniProt P08637 17-208).
T2 construct: extracellular domain; Soluble receptor expressed in FreeStyle293 cells, used as analyte in Biacore; also called FcgRIIIa; 3a; not shown: His tag attached to the C terminus
T2 sequence (P08637 17-208): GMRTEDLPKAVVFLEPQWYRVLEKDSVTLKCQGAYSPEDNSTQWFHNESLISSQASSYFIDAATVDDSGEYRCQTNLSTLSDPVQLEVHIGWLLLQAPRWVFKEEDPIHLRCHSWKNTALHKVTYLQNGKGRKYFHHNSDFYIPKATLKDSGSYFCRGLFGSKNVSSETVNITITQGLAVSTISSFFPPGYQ
The experiment in a line: SPR (Biacore); ratio of He/Con_3a (FcγRIIIa) to He/Con_2b (FcγRIIb). Summed up:
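Binding responses come from Biacore SPR with FcγR as analyte over antibody captured on an antigen-peptide surface. Conditions: HBS-EP+ buffer, 25 °C.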
Regarding B12, the “IIIa/IIb (He_3a/2b)” value worked out at 1.31 ratio. The same measure, in the same setting: the same measure for B13: 1.24 ratio; for B14: 1.33 ratio.

A further assay concerns the target T3, FcγRIIb extracellular domain with C-terminal His tag (human, UniProt P31994 43-217).
T3 construct: extracellular domain; Soluble receptor expressed in FreeStyle293 cells, used as analyte in Biacore; also called FcgRIIb; 2b; not shown: His tag attached to the C terminus
T3 sequence (looked up): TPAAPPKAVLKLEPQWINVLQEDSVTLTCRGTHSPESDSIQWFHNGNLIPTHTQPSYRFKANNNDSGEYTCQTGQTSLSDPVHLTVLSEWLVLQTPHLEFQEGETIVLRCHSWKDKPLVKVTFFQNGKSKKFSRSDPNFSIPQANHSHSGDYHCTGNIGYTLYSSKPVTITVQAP
The experiment in a line: SPR (Biacore), antibody captured via antigen peptide, FcγR as analyte; binding amount relative to control heterodimerized antibody. The procedure: (§1) The heterodimerized antibodies He Abs in which one of the H chains was introduced with an alteration were assayed for their binding activities to each activating FcγR and inhibitory FcγR according to the method described in Example 4. […] The activating FcγRs in FIGS. 26, 27, 28, and 29 are FcγRIa, FcγRIIa (R), FcγRIIa (H), and FcγRIIIa, respectively.
(§2) Analysis of interaction between objective antibody and the FcγR was carried out using Biacore T100 (GE Healthcare). HBS-EP+ (GE Healthcare) was used as the running buffer, and the measurement temperature was set to 25° C. Chips produced by immobilizing the antigen peptide by the amine coupling method to a Series S Sencor Chip CM5 (GE Healthcare), or alternatively, chips produced by allowing preliminarily biotinylated antigen peptides to interact with and immobilize onto a Series S Sensor Chip SA (certified) (GE Healthcare) were used. Antibodies of interest were captured onto an antigen peptide-immobilized chip, and allowed to interact to each FcγR diluted with running buffer. To regenerate and repeatedly use the chip, the antibodies captured on the chip were washed off by reacting 10 mM glycine-HCl, pH 1.5.
With B12, the “He/Con_2b (IIb binding)” value is 84.9 relative binding, GpH7-A5/GpH7-B3/GpL16-k0 = 100.

Turning to B13, the “He/Con_2b (IIb binding)” value was 90.3 relative binding, GpH7-A5/GpH7-B3/GpL16-k0 = 100. As to B14, the “He/Con_2b (IIb binding)” value was 89.8 relative binding, GpH7-A5/GpH7-B3/GpL16-k0 = 100.

A further assay deals with T2, FcγRIIIa extracellular domain with …. Described as above. How it is done: as §1, §2
Regarding B12, the “He/Con_3a (IIIa binding)” value was 111 relative binding, GpH7-A5/GpH7-B3/GpL16-k0 = 100. Same read-out and setting: the same measure for B13: 112 relative binding, GpH7-A5/GpH7-B3/GpL16-k0 = 100; for B14: 119 relative binding, GpH7-A5/GpH7-B3/GpL16-k0 = 100.
